Measured values taken from the supplement of paper PMC10567573.

B1: PWWP2B (parent)
chain: TIRLRPRQVLCEKCKSTLSPPEAS

Variants of: B1
Assay: protein stability index of a GFP-peptide fusion (GPS, HEK-293T) (PSI 1-6); higher = more stable
Settings: c terminus: a fixed tail appended
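Note: lentivirally expressed fusions sorted by FACS into six bins by GFP to DsRed ratio, PSI derived from sequencing read proportions per bin multiplied by bin number.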

Row | Variant | protein stability index
1 | R7E | 3.9
2 | R7F | 2.94
3 | R7G | 3.12
4 | R7H | 3.1
5 | R7I | 2.9
6 | R7K | 2.99
7 | R7L | 2.62
8 | R7M | 2.92
9 | R7N | 2.87
10 | R7P | 3.33
11 | R7Q | 3.38
12 | R7S | 3.01
13 | R7T | 3.31
14 | R7V | 2.96
15 | R7W | 2.16
16 | R7Y | 2.69
17 | Q8A | 2.85
18 | Q8C | 2.09
19 | Q8D | 3.49
20 | Q8E | 3.33
21 | Q8F | 2.24
22 | Q8G | 2.96
23 | Q8H | 2.77
24 | Q8I | 2.64

Row | Variant | protein stability index
25 | Q8K | 2.99
26 | Q8L | 2.58
27 | Q8M | 2.92
28 | Q8N | 2.97
29 | Q8P | 3.06
30 | Q8R | 2.95
31 | Q8S | 3.05
32 | Q8T | 2.76
33 | Q8V | 2.35
34 | Q8W | 2.19
35 | Q8Y | 2.74
36 | V9A | 3.61
37 | V9C | 3.42
38 | V9D | 3.19
39 | V9E | 3.35
40 | V9F | 2.72
41 | V9G | 2.64
42 | V9H | 2.97
43 | V9I | 3
44 | V9K | 2.85
45 | V9L | 2.37
46 | V9M | 2.73
47 | V9N | 3.58
48 | V9P | 3.13

Row | Variant | protein stability index
49 | V9Q | 3.31
50 | V9R | 2.94
51 | V9S | 3.16
52 | V9T | 3.33
53 | V9W | 2.24
54 | V9Y | 2.54
55 | L10A | 3.44
56 | L10C | 3.21
57 | L10D | 3.9
58 | L10E | 3.35
59 | L10F | 1.94
60 | L10G | 3.17
61 | L10H | 3.3
62 | L10I | 2.83
63 | L10K | 3.38
64 | L10M | 2.83
65 | L10N | 3.53
66 | L10P | 3.37
67 | L10Q | 3.53
68 | L10R | 2.84
69 | L10S | 3.13
70 | L10T | 3.43
71 | L10V | 3.61
72 | L10W | 2.48

Row | Variant | protein stability index
73 | L10Y | 2.5
74 | C11A | 3.06
75 | C11D | 3.93
76 | C11E | 4.15
77 | C11F | 2.53
78 | C11G | 3.85
79 | C11H | 3.13
80 | C11I | 3.33
81 | C11K | 3.58
82 | C11L | 2.84
83 | C11M | 2.86
84 | C11N | 3.62
85 | C11P | 3.46
86 | C11Q | 3.57
87 | C11R | 3.4
88 | C11S | 3.73
89 | C11T | 3.6
90 | C11V | 3.25
91 | C11W | 2.23
92 | C11Y | 3.25
93 | E12A | 2.59
94 | E12C | 2.26
95 | E12D | 3.28
96 | E12F | 2.25

Row | Variant | protein stability index
97 | E12G | 2.59
98 | E12H | 3.03
99 | E12I | 1.93
100 | E12K | 2.42
101 | E12L | 1.97
102 | E12M | 2.26
103 | E12N | 2.81
104 | E12P | 2.99
105 | E12Q | 2.33
106 | E12R | 3.08
107 | E12S | 3.01
108 | E12T | 2.82
109 | E12V | 2.39
110 | E12W | 2.28
111 | E12Y | 2.2
112 | K13A | 2.72
113 | K13C | 2.74
114 | K13D | 3.39
115 | K13E | 3.32
116 | K13F | 2.46
117 | K13G | 2.6
118 | K13H | 2.53
119 | K13I | 2.73
120 | K13L | 1.81

Row | Variant | protein stability index
121 | K13M | 2.84
122 | K13N | 2.78
123 | K13P | 3.22
124 | K13Q | 2.83
125 | K13R | 3.37
126 | K13S | 3
127 | K13T | 2.39
128 | K13V | 2.71
129 | K13W | 2.49
130 | K13Y | 2.24
131 | C14A | 3.85
132 | C14D | 4.04
133 | C14E | 4.23
134 | C14F | 3.19
135 | C14G | 4.08
136 | C14H | 3.52
137 | C14I | 3.64
138 | C14K | 4.05
139 | C14L | 3.13
140 | C14M | 3.44
141 | C14N | 4.05
142 | C14P | 4.29
143 | C14Q | 4.05
144 | C14R | 3.32

Row | Variant | protein stability index
145 | C14S | 3.84
146 | C14T | 4.22
147 | C14V | 3.52
148 | C14W | 2.58
149 | C14Y | 3.45
150 | K15A | 2.71
151 | K15C | 2.41
152 | K15D | 3.58
153 | K15E | 3.72
154 | K15F | 3.01
155 | K15G | 2.83
156 | K15H | 2.57
157 | K15I | 2.51
158 | K15L | 2.76
159 | K15M | 2.79
160 | K15N | 3.26
161 | K15P | 4.03
162 | K15Q | 2.72
163 | K15R | 2.59
164 | K15S | 2.74
165 | K15T | 3.07
166 | K15V | 2.71
167 | K15W | 2.76
